US9433687B2, “Anti-Notch3 antibodies and antibody-drug conjugates” (Pfizer Inc., priority 2012, dated 2016)

T1: human Notch2 NRR-Fc (Homo sapiens, UniProt Q04721)
T1 construct: Expression constructs encoding human Notch1 and Notch2 NRR regions, fused with human IgG1 Fc fragments; made in house; host or cells: CHO-PACE cells
T1 sequence (Q04721 1425-1677 limits assumed): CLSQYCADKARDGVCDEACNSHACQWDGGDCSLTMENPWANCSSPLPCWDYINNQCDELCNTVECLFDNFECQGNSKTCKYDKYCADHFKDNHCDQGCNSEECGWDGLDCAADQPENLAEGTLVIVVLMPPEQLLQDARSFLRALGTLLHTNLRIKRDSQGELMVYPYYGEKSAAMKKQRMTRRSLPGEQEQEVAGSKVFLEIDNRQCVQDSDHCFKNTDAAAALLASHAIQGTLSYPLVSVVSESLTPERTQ

T2: human Notch3 NRR recombinant protein (Homo sapiens, UniProt Q9UM47)
T2 construct: made in house
T2 sequence (Q9UM47 with tags, fused parts or gaps): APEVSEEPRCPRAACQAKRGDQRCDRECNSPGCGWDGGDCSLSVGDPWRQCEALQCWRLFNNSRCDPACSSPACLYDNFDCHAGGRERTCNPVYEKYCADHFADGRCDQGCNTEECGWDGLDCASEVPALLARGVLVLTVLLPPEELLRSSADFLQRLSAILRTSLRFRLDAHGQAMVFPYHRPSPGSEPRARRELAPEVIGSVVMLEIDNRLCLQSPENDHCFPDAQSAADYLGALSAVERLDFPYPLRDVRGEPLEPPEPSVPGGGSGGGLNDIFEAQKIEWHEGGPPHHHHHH

T3: human Notch1 NRR-Fc (Homo sapiens, UniProt P46531)
T3 construct: Expression constructs encoding human Notch1 and Notch2 NRR regions, fused with human IgG1 Fc fragments; made in house; host or cells: CHO-PACE cells
T3 sequence (P46531 1446-1733 limits assumed): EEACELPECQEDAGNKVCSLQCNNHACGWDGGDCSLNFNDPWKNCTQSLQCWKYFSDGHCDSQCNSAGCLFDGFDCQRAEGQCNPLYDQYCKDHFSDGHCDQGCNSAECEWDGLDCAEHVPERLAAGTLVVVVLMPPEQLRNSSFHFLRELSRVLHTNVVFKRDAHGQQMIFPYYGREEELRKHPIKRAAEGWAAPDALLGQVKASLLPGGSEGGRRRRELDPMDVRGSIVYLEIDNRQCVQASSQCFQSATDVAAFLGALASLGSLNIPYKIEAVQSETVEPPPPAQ

B1: ch75-mc0131 (conjugate)
VH: QVKLLQSGAALVKPGASVKMSCKASGYAFTDYWVTWVKQSHGKSLEWIGEISPNSGGTNFNEKFKGKATLTVDKSTSTAYMELSRLTSEDSAIYYCTRGEIRYNWFAYWGQGTLVTVSS
VL: DIQMTQSPSSLSASVGDRVTITCKASQNVGNNIAWYQQKPGKAPKLLIYYASNRYTGVPSRFSGSGYGTDFTLTISSLQPEDFATYYCQRLYNSPFTFGGGTKVEIK
B2: ch28: rat-human chimeric anti-Notch3 antibody 28, rat variable regions fused with human IgG1 and human kappa (antibody, V domains shown)
VH: EVQLVESGGGLVQPGRSLTLSCVASGFTFRDYGMTWIRQAPGKGLTWVAYISSGSNYIYYAEAVKGRFTISRDNAKNTLYLQMTSLRSEDTALYFCTRRGPFVLDAWGQGASVTVSS
VL: DIQMTQSPSFLSASVGDRVTINCKASQSINRYLHWFQQKLGEAPKLLIYNANGLQTGIPSRFSGSGSGTDFTLTISSLQSEDVATYFCLQHNTWPDTFGAGTKLELK
B3: ch28-vc0101: ch28 conjugated to vc0101 linker-payload (conjugate)
VH: EVQLVESGGGLVQPGRSLTLSCVASGFTFRDYGMTWIRQAPGKGLTWVAYISSGSNYIYYAEAVKGRFTISRDNAKNTLYLQMTSLRSEDTALYFCTRRGPFVLDAWGQGASVTVSS
VL: DIQMTQSPSFLSASVGDRVTINCKASQSINRYLHWFQQKLGEAPKLLIYNANGLQTGIPSRFSGSGSGTDFTLTISSLQSEDVATYFCLQHNTWPDTFGAGTKLELK

What was measured:
N87 gastric xenografts = test: N87 gastric xenograft model; format: in vivo, mouse; conditions: 5 mg/kg iv Q4dx4; FIG. 16D, 16E
Method: Similar in vivo experiments were performed with the N87 gastric cancer cell line as described above. To generate xenografts, nude (Nu/Nu) female mice were implanted subcutaneously with 8×10^6 N87 cells in 50% Matrigel (BD Biosciences).
The N87 gastric model was also dosed intravenously Q4d×4 with PBS vehicle, rat-human chimeric anti-Notch3 ADCs and control huNeg-8.8 ADCs, at a dose of 5 mg/kg as provided in FIG. 16D.
The N87 gastric model was also dosed intravenously Q4d×4 with PBS vehicle and rat-human chimeric anti-Notch3 ADCs ch28-mc0131, ch75-mc0131, ch28-m(H2O)c-0131 and ch75-m(H2O)c-0131 at a dose of 5 mg/kg as provided in FIG. 16E.

U2OS/hNotch3 = U2OS/hNotch3 (Homo sapiens, UniProt Q9UM47); test: In vitro cytotoxicity (MTS), U2OS/hNotch3; format: cell-based; design: U-2 OS cells stably over-expressing human full length Notch3 protein on cell surface; expressed in transfected cells; host or cells: U-2 OS (human osteosarcoma); conditions: Table 13; four days; LP = lacked potency
U2OS/hNotch3, sequence (Q9UM47 40-2321): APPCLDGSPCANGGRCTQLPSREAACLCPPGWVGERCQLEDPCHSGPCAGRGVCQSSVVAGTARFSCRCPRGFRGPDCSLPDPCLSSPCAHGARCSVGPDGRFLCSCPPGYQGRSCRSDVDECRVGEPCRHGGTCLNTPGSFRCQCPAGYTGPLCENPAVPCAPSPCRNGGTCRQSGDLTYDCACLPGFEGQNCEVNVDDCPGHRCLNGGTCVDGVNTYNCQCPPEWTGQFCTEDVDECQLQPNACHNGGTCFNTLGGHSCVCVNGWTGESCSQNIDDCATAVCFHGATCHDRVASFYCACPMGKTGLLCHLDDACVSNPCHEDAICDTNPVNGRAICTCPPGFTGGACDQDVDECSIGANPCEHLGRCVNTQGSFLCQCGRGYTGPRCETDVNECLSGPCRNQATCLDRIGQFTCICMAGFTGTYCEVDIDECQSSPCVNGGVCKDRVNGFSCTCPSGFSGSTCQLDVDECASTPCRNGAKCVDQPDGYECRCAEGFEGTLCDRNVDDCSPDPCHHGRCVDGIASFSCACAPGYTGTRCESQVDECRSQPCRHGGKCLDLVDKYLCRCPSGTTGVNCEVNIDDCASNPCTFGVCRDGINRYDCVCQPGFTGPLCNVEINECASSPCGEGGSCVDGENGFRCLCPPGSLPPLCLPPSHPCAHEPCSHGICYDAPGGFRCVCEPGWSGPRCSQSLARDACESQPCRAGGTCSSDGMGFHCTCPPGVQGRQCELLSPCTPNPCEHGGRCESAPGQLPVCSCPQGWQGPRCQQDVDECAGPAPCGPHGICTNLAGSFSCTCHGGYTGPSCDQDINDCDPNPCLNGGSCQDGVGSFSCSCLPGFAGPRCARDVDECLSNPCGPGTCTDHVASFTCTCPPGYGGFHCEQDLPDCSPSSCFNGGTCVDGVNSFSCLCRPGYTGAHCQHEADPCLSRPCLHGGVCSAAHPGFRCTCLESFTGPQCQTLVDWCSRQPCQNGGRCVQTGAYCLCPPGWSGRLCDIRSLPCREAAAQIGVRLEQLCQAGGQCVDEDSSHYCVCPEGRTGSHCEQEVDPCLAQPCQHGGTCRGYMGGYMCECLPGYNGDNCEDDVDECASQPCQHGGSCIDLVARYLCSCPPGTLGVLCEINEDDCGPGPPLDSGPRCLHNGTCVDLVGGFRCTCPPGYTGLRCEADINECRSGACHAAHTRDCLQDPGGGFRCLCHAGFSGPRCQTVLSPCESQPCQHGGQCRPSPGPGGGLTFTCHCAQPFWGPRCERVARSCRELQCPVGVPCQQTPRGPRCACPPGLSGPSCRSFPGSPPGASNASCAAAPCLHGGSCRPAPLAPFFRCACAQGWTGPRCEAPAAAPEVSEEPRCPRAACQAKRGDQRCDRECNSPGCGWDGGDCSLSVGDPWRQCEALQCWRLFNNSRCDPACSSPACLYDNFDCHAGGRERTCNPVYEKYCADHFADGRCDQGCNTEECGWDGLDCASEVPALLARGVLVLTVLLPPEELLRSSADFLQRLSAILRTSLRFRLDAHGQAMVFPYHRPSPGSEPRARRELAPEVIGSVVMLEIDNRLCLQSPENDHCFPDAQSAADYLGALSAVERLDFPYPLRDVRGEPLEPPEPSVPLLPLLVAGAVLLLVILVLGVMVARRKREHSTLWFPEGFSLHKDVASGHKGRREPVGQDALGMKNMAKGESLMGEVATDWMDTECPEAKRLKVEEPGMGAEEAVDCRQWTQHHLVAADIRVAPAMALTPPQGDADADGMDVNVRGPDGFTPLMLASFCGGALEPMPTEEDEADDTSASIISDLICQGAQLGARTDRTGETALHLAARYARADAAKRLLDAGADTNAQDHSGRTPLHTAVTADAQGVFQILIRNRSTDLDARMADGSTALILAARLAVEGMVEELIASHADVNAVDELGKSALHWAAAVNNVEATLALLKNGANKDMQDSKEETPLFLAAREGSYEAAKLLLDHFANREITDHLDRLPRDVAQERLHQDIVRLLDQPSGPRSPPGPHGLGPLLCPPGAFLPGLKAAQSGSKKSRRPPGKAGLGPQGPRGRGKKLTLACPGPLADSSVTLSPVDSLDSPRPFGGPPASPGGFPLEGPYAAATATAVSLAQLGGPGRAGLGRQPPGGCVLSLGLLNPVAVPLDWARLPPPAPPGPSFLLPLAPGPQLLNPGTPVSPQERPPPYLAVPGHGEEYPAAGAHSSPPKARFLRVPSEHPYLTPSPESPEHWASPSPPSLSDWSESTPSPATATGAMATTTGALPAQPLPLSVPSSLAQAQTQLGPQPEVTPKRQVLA
Method: (§1) The effects of anti-Notch3 ADCs were assessed on 1) cell lines endogenously expressing Notch3 protein: HCC2429 (lung cancer), OVCAR3 (ovarian cancer) and MDA-MB-468 (breast cancer), 2) cell lines engineered to over-express full length human Notch3 protein: MDA-MB-468/hNotch3 and U2OS/hNotch3, and 3) a negative control cell line (SW900) using an MTS cellular viability indicator (Promega, Madison, Wis.). These cell lines were cultured with increasing concentrations of anti-Notch3 ADCs comprising rat-human chimeric anti-Notch3 antibodies, ch28 and ch75, and humanized anti-Notch3 antibodies, hu28 and hu75, conjugated to various linker-payload combinations of the present invention. As a specificity control for the anti-Notch3-ADCs, non-targeted control-ADCs (huNeg8.8-ADCs or ch2H6-ADCs) were also tested on the same cell lines. After four days, viability of each culture was assessed. IC50 values were calculated by logistic non-linear regression, model #203 with XL fit v4.2 (IDBS, Guildford, Surry, UK) and presented as ng Ab/mL. The drug antibody ratio (DAR) is also provided.

[1] = system: MDA-MB-468 (breast cancer); test: In vitro cytotoxicity (MTS), MDA-MB-468; format: cell-based, human; conditions: Table 13; four days; LP = lacked potency
Method: as §1

OVCAR3 (ovarian cancer) = test: In vitro cytotoxicity (MTS), OVCAR3; format: cell-based, human; conditions: Table 13; four days; LP = lacked potency
Method: as §1
(§2) This process generated the anti-Notch3 cysteine mutant ADCs: hu28-(L443C)-vc0101 and hu28-(L443C/κK183C)-vc0101. The activity of the anti-Notch3 cysteine mutant ADCs were assessed on cell lines endogenously expressing Notch3 protein: HCC2429 (lung cancer) and OVCAR3 (ovarian cancer) using an MTS cellular viability indicator as described in previous Examples.

HCC2429 (lung cancer) = test: In vitro cytotoxicity (MTS), HCC2429; format: cell-based, human; conditions: Table 13; four days; LP = lacked potency
Method: as §1, §2

human Notch2 NRR-Fc = target: T1, human Notch2 NRR-Fc; test: Binding to Notch2 NRR-Fc; conditions: N/B = non-binding
Source text: (§3) Other members of the Notch receptor family play important roles in biological processes. For example, a Notch1 or Notch2 deficiency leads to embryonic death in mouse models. In contrast, a Notch4 deficiency results in no detectable phenotype in mouse models. The closest homologues of the Notch3 NRR region are Notch1 and Notch2 (˜50% homology), and Notch4 is a more distant homologue (˜30% homology). Cross-reactivity of anti-Notch3 antibodies to other members of the Notch family, especially Notch1 and 2, may lead to undesired effects in patients. Therefore, the potential cross-reactivity of r28 and hu28, along with r75 and hu75 to other Notch family members were assessed.
(§4) Expression constructs encoding human Notch1 and Notch2 NRR regions, fused with human IgG1 Fc fragments were stably introduced into CHO-PACE cells. Conditioned media from these cells expressing NRR-Fc fusions were collected. Human Notch2 NRR-Fc and human Notch1 NRR-Fc were purified by protein A affinity followed by size exclusion chromatography (SEC). Purified preparations were dialysed into TBS with 1 mM CaCl2 and analyzed on analytical SEC to be >99% in purity.

[2] = target: T2, human Notch3 NRR recombinant protein; test: Surface plasmon resonance (Biacore) kinetic analysis; format: binding; conditions: antibody captured; 1:1 Langmuir model
Method: The kinetic constants of the anti-Notch3 NRR interactions were determined by surface plasmon resonance (Biacore® T100, Biacore Inc., Piscataway, N.J.). Flow cells of a CM5 chip were immobilized with approximately 10,000 response units (RU) of anti-human IgG-Fc (Biacore®) in 10 mM Glycine, pH 5.0 at 10 μl/min for 600 seconds. 10 μg/ml of anti-Notch3 antibodies ch28 and hu28, and ch75 and hu75 were diluted in TBS with 1 mM CaCl2 were captured at 10 μl/min. Association of four concentrations of human Notch3 NRR recombinant protein (from 3.7-100 nM) and a zero concentration (running buffer) at 100 μl/min were recorded for 3 minutes in TBS with 1 mM CaCl2. Dissociation of the complexes was measured for 10 minutes. The surface of the chip was regenerated by injecting 3M MgCl2 with 3 mM EGTA for 60 seconds at 10 μl/min. Curves obtained after subtraction of the reference and buffer signals were fitted to a 1:1 Langmuir binding model with Biacore® T100 Evaluation Software (Biacore®).

human Notch1 NRR-Fc = target: T3, human Notch1 NRR-Fc; test: Binding to Notch1 NRR-Fc; conditions: N/B = non-binding
Source text: as §3, §4

[3] = Thermal stability by differential scanning calorimetry (DSC); format: physicochemical; conditions: 0.3 mg/ml in PBS
Method: There is a positive correlation between the thermal stability of a protein or protein domain with the overall stability of the protein or protein domain. A higher melting point of a protein or protein domain often provides improved manufacturability and longer shelf life. Differential scanning calorimetry (DSC) was used to assess the thermal stability of hu28 and hu75 versus ch28 and ch75, respectively. Protein samples were diluted in PBS to 0.3 mg/ml in a volume of 250 μl. The corresponding formulation buffer blank was used for the reference sample. Both samples were thoroughly degassed using a MicroCal ThermoVac Sample Degassing and Thermostat (Microcal, Inc., Northampton, Mass.) set to 8° C. Samples were dispensed into the appropriate cells of a MicroCal VP-DSC Capillary Cell MicroCalorimter (MicroCal, Inc., Northampton, Mass.). Samples were equilibrated for 4 minutes at 15° C. and then scanned up to 100° C. at a rate of 100° C. per hour. A filtering period of 20 seconds was selected. Raw data was baseline corrected and the protein concentration was normalized. Origin Software (OriginLab Corporation, Northampton, Mass.) was used to fit the data to an MN2-State Model with an appropriate number of transitions.

MDA-MB-468/hNotch3 = target: T4, MDA-MB-468/hNotch3 (Homo sapiens, UniProt Q9UM47); test: In vitro cytotoxicity (MTS), MDA-MB-468/hNotch3; format: cell-based; conditions: Table 13; four days; LP = lacked potency
T4 construct: cell lines engineered to over-express full length human Notch3 protein: MDA-MB-468/hNotch3 and U2OS/hNotch3; expressed in transfected cells; host or cells: MDA-MB-468
T4 sequence (Q9UM47 40-2321): as above
Method: as §1

Molecule	growth of N87 gastric xenografts (N87 gastric xenografts)	IC50 (ng Ab/mL) ± S.E.M., U2OS/hNotch3 (U2OS/hNotch3)	IC50 (ng Ab/mL) ± S.E.M., MDA-MB-468 [1]	IC50 (ng Ab/mL) ± S.E.M., OVCAR3 (OVCAR3 (ovarian cancer))	IC50 (ng Ab/mL) ± S.E.M., HCC2429 (HCC2429 (lung cancer))	Binding to Notch2 NRR-Fc (human Notch2 NRR-Fc)	ka [2]	kd [2]	Binding to Notch1 NRR-Fc (human Notch1 NRR-Fc)	Tm ± Standard Deviation, CH2 [3]	Tm ± Standard Deviation, CH3 [3]	Tm ± Standard Deviation, Fab [3]	IC50 (ng Ab/mL) ± S.E.M., MDA-MB-468/hNotch3 (MDA-MB-468/hNotch3)
B1	inhibited growth of N87 gastric xenografts	19 ng Ab/mL	8202 ± 2773.0 ng Ab/mL	289 ng Ab/mL	671 ± 406.5 ng Ab/mL	–	–	–	–	–	–	–	–
B2	–	–	–	–	–	N/B	409000 M⁻¹ s⁻¹	0.000249 s⁻¹	N/B	70.20 ± 0.05 °C	84.24 ± 0.07 °C	73.22 ± 0.73 °C	–
B3	–	95 ± 18.2 ng Ab/mL	5443 ± 2630.9 ng Ab/mL	635 ng Ab/mL	3230 ± 1116.5 ng Ab/mL	–	–	–	–	–	–	–	4 ± 0.5 ng Ab/mL
